Source: patent publication US7041283B1, “Methods of using immunophilin binding drugs to improve integration and survival of neuronal cell transplants” (University of Pittsburgh-Of the Commonwealth System of …, priority 2001, dated 2006)

Tested on: second trimester human fetal neuroglial cultures
Assay: Second trimester human fetal neuroglial cultures treated with FK506 and/or BDNF; MAP-2/GFAP immunostaining and propidium iodide cell counts by laser confocal microscopy
Assay type: cell-based
Procedure: Surgical pathology fetal specimens were collected and processed in accordance with the University of Pittsburgh Human Tissue Committee guidelines. Human telencephalic tissues (18-21 weeks of gestation) were collected and placed in DMEM medium (Life Technologies Inc., Grand Island, N.Y.). […] Tissue processing followed a modified mouse brain dissociation protocol. Within 1 hour of collection, the brain material was placed in Ca^++-and Mg^++-free DPBS (Life Technologies), cleaned of meninges, rinsed and minced. Tissue fragments were incubated in 0.05% trypsin-EDTA with additives (Life Technologies) for 5 min at 37° C. and further dissociated. Trypsin inhibitor (10 mg/ml; Sigma, St. Louis, Mo.) was subsequently added, followed by centrifugation for 5 min at 250×g. After filtering through 70 μm nylon-mesh cell strainers (Becton Dickinson, Franklin Lakes, N.J.), the cell suspension was cleaned by gradient centrifugation through an 8% BSA (Sigma) layer (250×g, 10 min). A second filtering was performed using 70 μm and 40 μm nylon-mesh cell strainers (Becton Dickinson). The single cell suspension was counted on a hemocytometer using trypan blue exclusion, brought to a final density of 10^6 cells/ml and plated on poly-l-ornithine (Sigma) and laminin (Life Technologies) coated 12 mm glass coverslips (Fisher, Pittsburgh, PA) on 24-well plates (Becton Dickinson).
Throughout the experiments standard tissue culture techniques were used, in combination with the drug protocol. More specifically, cultures were incubated in 10% CO2 at 37° C. and fed every other day for 1, 5, 12, or 21 days with fresh NPMM (Bio Whittaker, San Diego, Calif.), followed by NPMM with or without various concentrations of FK506 (provided by Dr. A. Zeevi) and/or BDNF (5 ng/ml, Promega, Madison, Wis.).
In an attempt to identify the cell phenotype that is most affected by different treatments, the neuroglial cultures were immunostained for the neuronal marker MAP-2 and the astrocytic marker GFAP. After 7 days of treatment, cultures were washed with PBS and PBS with 0.05% Tween 20 (Sigma), fixed with 4% paraformaldehyde for 30 min and then incubated for 30 min with PBS with 0.2% BSA and 0.1% Triton X (Sigma). Without washing, cultures were incubated overnight at 4° C. with the primary antibodies mouse anti-MAP-2(1:500, Stemberger Monoclonals Inc., Baltimore, Md.) and rabbit anti-GFAP (1:100, Dako, Capinteria, Calif.). After thorough washing with PBS+0.05% Tween 20, a secondary antibody (FITC-conjugated goat anti- mouse and FITC- conjugated goat anti- rabbit) was applied for 2 hours (1:200, Jackson Immuno, West Grove, Pa.). All antibodies were diluted in common antibody diluent (ScyTek, Logan, Utah). RNase A (10 μg/ml; Sigma) was added during the secondary antibody incubation (20 min), followed by the nuclear stain propidium iodide (5 μg/ml, Sigma). Propidium iodide was used to allow quantification of cell numbers for each treatment condition, using LCM and ImageSpace software as described below. Coverslips were then washed and mounted on glass slides (Fisher) using gelvatol fluorescence mounting medium.
A quantitative assessment of the results (i.e., the numbers of cell nuclei stained with propidium iodide and areas covered by immunofluorescent marker staining) using laser confocal microscopy and ImageSpace software (Molecular Dynamics, Sunnyvale, Calif.) was carried out as follows: six randomly chosen fields were analyzed per coverslip (well). The Argon/Krypton laser confocal microscope 40× objective with oil immersion lens (Model 2001, Molecular Dynamics) was used. Images of 512×512 pixels were collected at a pixel size of […]. Vertical sections were acquired in order to define vertical borders for the collection of Z-series. The step size between adjacent sections was […]. FITC was excited with a wavelength of 488 nm and collected with a 530DF30 filter. Propidium iodide was excited with a wavelength of 568 nm and collected with a 590DFLP filter. […]

Row | Molecule | toxic effects (higher concentrations of FK506) | neurite outgrowth / neuronal processes extension | enhancement of neuronal differentiation (5 ng/ml, 7 days of treatment) | MAP-2 surface/cell number ratio (5 ng/ml, 7 days of treatment starting at DIC 12, vs control) | GFAP surface/cell number ratio (GFAP expression) (7 days of treatment, vs control) | number of neurons (BDNF: NeuN immunostaining, unpublished observations)
1 | C=CC[C@@H]1/C=C(\C)C[C@H](C)C[C@H](OC)[C@H]2O[C@@](O)(C(=O)C(=O)N3CCCC[C@H]3C(=O)O[C@H](/C(C)=C/[C@@H]3CC[C@@H](O)[C@H](OC)C3)[C@H](C)[C@@H](O)CC1=O)[C@H](C)C[C@@H]2OC [FK506, reference compound] | did not appear to exert toxic effects |  |  |  |  | 
2 | BDNF: brain-derived neurotrophic factor (Promega), neurotrophic protein (protein, UniProt P23560 129-247, looked up, Neurotrophic factor BDNF, brain-derived neurotrophic factor (Promega), neurotrophic protein) Neurotrophic factor BDNF: HSDPARRGELSVCDSISEWVTAADKKTAVDMSGGTVTVLEKVPVSKGQLKQYFYETKCNPMGYTKEGCRGIDKRHWNSQCRTTQSYVRALTMDSKKRIGWRFIRIDTSCVCTLTIKRGR |  | tends to increase | not significant | not significantly different from control | decreased | modestly increasing
